The target of this test is T1, recombinant full-length FLAG-Nbs1 (human, UniProt O60934 1-754).
T1 construct: Nbs1 (Nijmegen breakage syndrome gene product), human, full length; also called recombinant full-length Nbs1; source: recombinant, a gift from Tanya Paull
T1 sequence (looked up): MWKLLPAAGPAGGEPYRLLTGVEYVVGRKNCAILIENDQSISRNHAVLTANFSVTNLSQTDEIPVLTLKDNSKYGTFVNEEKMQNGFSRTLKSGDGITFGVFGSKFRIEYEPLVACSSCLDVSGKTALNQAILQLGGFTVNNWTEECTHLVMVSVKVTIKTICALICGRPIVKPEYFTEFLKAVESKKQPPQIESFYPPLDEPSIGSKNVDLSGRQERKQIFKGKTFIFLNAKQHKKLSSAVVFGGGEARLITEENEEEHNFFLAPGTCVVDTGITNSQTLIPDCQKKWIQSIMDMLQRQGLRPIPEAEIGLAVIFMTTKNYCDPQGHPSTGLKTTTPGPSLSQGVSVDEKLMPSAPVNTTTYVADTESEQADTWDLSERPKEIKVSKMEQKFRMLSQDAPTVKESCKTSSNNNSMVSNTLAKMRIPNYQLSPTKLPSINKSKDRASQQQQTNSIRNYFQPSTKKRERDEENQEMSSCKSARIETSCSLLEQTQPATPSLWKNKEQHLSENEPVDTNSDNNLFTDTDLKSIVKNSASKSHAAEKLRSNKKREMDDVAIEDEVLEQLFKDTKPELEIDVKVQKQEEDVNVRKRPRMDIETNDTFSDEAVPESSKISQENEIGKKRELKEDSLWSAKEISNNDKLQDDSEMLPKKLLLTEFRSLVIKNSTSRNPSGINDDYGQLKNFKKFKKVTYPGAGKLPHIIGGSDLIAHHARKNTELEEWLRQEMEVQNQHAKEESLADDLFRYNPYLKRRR
Put plainly: far-Western, overlay or dot blot; Rad51 NTD kinase reaction (250 μM ATP) resolved by SDS-PAGE, transferred to nitrocellulose, incubated with recombinant full-length FLAG-Nbs1 (∼ 2 μg), detected with anti-Nbs1 antibody. Particulars: both partners purified.

B1: Rad51 NTD with S14D substitution (domain or fragment, human, UniProt Q06609 1-86, looked up)
chain: MAMQMQLEANADTDVEEESFGPQPISRLEQCGINANDVKKLEEAGFHTVEAVAYAPKKELINIKGISEAKADKILAEAAKLVPMGF
notes: also called NTD S14D; source: recombinant
As to B1, the binding result was “binds”.

B2: Rad51 NTD with S14E substitution (domain or fragment, human, UniProt Q06609 1-86, looked up)
chain: MAMQMQLEANADTEVEEESFGPQPISRLEQCGINANDVKKLEEAGFHTVEAVAYAPKKELINIKGISEAKADKILAEAAKLVPMGF
notes: also called NTD S14E; source: recombinant
Regarding B2, the binding result was “binds”.

Values taken from paper PMC3280358 (Molecular Cell, 2012).
